This data set can be described thus: label from the status in PepcDB records.
As for “MTVKAVFFDIDGTLLNDRKNIQKTTQKAIQQLKKQGIMVGLATGRGPGFVQPFLENFGLDFAVTYNGQYILTRDKVLYQNQLPKSMIYKVIRYANEKKREISLGTASGLAGSRIIDMGTSPFGQVISSFVPKSWARTVEGSFKHLIRRIKPQSFRNLVTIMREPIYQVVLVASQAETKKIQEKFPHIKITRSSPYSLDLISVDQSKIKGIERLGEMFGFDLSEVMAFGDSDNDLEMLSGVGIGIAMGNAETVVKDGAHFTTDSNNNDGISKALAHYGLIH”, the protein production entry is “failed”. To “MVFLVPFDGSPLADAALNRAVTYAKALDEDVVAVAFIPTGADYAERRRRVDPTEDFAAETAADDLRRKIEEATDDSELRYDDVSAHSTSELSTTIRQTARDVDANVVFLGSDDTEDIVVPIGEVTDGEDYDVHIVRRT” belongs “failed”; to “MAIATARAGGKETGTEQMYILQVTNSRSTMSKMSNVKEVNASTAFSMIKKGALLVDVRETREINRKAFGVSDYLSVPMSRFQSSLHEIPAERKVILACHSGNRSSIASRILVNSGHRKVHNLQHGIISWEREGLPVRKKESPSPLTMLFQMFRKEA”, “failed”.

In the case of “MTKTVEMVITGAQVLNVYTREFEATSLWIDHGRIISNLRDEPYIAAQHVDATGQWIVPGMIDAHVHMESSMVAPSELGKVLLQHGVTTIATDPHELANVAGLEHHHHHH”, the protein production result is “failed”. For “MRRLLFLSLAGLWLFSPAAAAQLPGLISQPLAGGGQSWSLSVQTLVFITSLTFLPAILLMMTSFTRIIIVFGLLRNALGTPSAPPNQVLLGLALFLTFFIMSPVIDKIYVDAYQPFSEQKISMQEALDKGAQPLRAFMLRQTREADLALFARLANSGPLQGPEAVPMRILLPAYVTSELKTAFQIGFTIFIPFLIIDLVIASVLMALGMMMVPPATIALPFKLMLFVLVDGWQLLMGSLAQSFYS”, the protein production entry is recorded as “failed”. To “MTASVTASVTAPETAPVPIVLAGARGHGRWHLDNIRRLQDRGLVRLAGICELTPLAEEELDGLGVPEQSADFGSLLDATGAAIAVICTPIPTHTDLALTAAERGVHLLLEKPPAPSFAEFRRMADGVAAAGVVCQIGFQSLGSGAVPGIRKLIAEGALGTVAGIGAAGAWARDEAYYRRAPWAGKRRLNGVDVIDGVLTNPLAHAVATALALDGSTRAEDVTDIETELLRANDIESDDTSCVRVTTKSGGRITVAATLCAEEPDEPYVLVHGDRGRITFWYKQDRVLVQRSGHGPQEIEYDRTDLLENLVGHLTHGAELLVTPESTGAFMKVVEAIRQAPDPVALPGDAWELIPGENRRVVRGVDGLVAAAADTLALYSELGASWALPNEVSSR” belongs “failed”. To “QHTEERELKKRLMNTARTVSEMTEVKEALARKKQTEAVRHAVEEIRMINEADYIVVMDMNHIRYTHPVSTSIGKKSEGADEEAAFAEHIYFSEAKGEIGTAVRAFYPVKDQDLNQIGVVLVGKTLPGIAD” belongs “failed”. In the case of “MTMMTATQALSVNPATGQTLAAMPWANAQEIEHALSLAASGFKKWKMTSVAQRAQTLRDIGQALRAHAEEMAQCITREMGKPIKQARAEVTKSAALCDWYAEHGPAMLNPEPTLVENQQAVIEYRPLGVILAIMPWNFPLWQVLRGAVPILLAGNSYLLKHAPNVTGCAQMIARILAEAGTPAGVYGWVNANNEGVSQMINDPRIAAVTVTGSVRAGAAIGAQAGAALKKCVLELGGSDPFIVLNDADLELAVKAAVAGRYQNTGQVCAAAKRFIVEEGIAQAFTDRFVAAAAALKMGDPLVEENDLGPMARFDLRDELHQQVQASVAEGARLLLGGEKIAGEGNYYAATVLADVTPDMTAFRQELFGPVAAITVAKDAAHALALANDSEFGLSATIFTADDTLAAEMAARLECGGVFINGYSASDARVAFGGVKKSGFGRELSHFGLHEFCNVQTVWKNRV” it was “failed”; in that of “MATLYDAPVDELIDELAADLETRLDEPDWANYAKTGAGRELPPEQSDFWATRAASLLRKVAIDGPIGVKRLSEAYGSTTSGSNRYVVAPSTTTAGSRNIVRTILQQLEAEGLVEQQHDHGRVVTGDGRSLLDETAGDVIESLDRPELERYA”, “failed”; in that of “TRKVLVLDLDNTLWGGVIGDDGIEGIVIGEGSARGEAFKAFQLYCRALRERGILLAVSSKNDPERALAAFDHPEMVLRRSDFAAFVANWEDKGQGLQRIAQELNLGLEALVFFDDNPAERALLREQFPAVAVPEVPEEPETYIRCLAAAGLFEAV”, “failed”. Take “MSLPTFRIIGFIIGIFLITLAVAMIVPMATLVIYDRFEDLRSFLWASAITFIAGLALVVPGRPDNVQLRPRDMYMLTVSSWIVVCIFAALPFLLTQHISYTDSFFESMSGITATGSTVLSHLDSMSPGILIWRSMLHWLGGIGFIGMAVAILPLLRIGGMRLFQTESSDRSEKVMPRSHMVAKFIVLAYVGFTALGSLAFWAAGMSLFDAINHAMSAISTGGFSTSDLSLARWPQPAVHWVAIVVMILGSLPFTLYVATLRGNRKALIKDEQVQGLIGLLLITWLVMTVWYANTTDLPWTEALRHVALNVTSVVTTTGFALGDYSLWGNFSLMLFFYLGFIGGCSGSTAGGVKIFRFQVAYILLKTNLNQLIHPRAVMKQKYNGHRLDDEIVRSILTFSFFFTITICLIALMLSLLGLDWMTALTGAASTVSGVGPGLGEVIGPAGNFSTLPDAAKWILSGGMLLGRLEIITVLVLCVPAFWRH”: the protein production result was “failed”. To “MSIESSATPTTPNAEALQLNSTEVRILGCLIEKQATNPETYPLTLNALVIACNQKTSRDPVMNLTQGQVGQSLRALEGRGLTRLVMGSRADRWEHKVDKGLELVPAQVILTGLLLLRGPQTVSELLTRSNRMHDFEDSEQVVHQLERLIARGLATLVPRQSGQREDRYMHLIGDPEDLQD” belongs “not failed”; to “MEFKDYYKIMGVPRDASQDDIKRAYRKLARKYHPDVSKDPQAEARFKELGEAYEVLKDPEKRVAYDRLGTNWKADQEFRPPPDWNAGFEFSQQGFTGADAAQFSEFFESLFGRSFRAEQARRGGETHGGPGGAFFHAPGEDRYAKIMIDLEDSYHGATRTISLQVPEVDAEGHVSTREHKLNVVIPRGIRPRQYIRLAGKGAPGHGQGKAGDLYLEIEFRSHPIYRVDEHDVYLDLPVAPWEAALGATITVPTPEGMVDLKIPADSTTGRKLRLKGRGIPGKIPGDFYVVLRIVPPPATDESDKAFYRSMAEQFKSFNPRAKLGVQA”, “failed”. In the case of “MMKKHMYRLGLFKALTLALLVLLSAFVPSVLANQSRKPANLDGTTTLQSILSSSHRSEENRQRDKYRHPTQTLSFFGLRPDMTVVELWPGSGWYTEILAPYLAAKGQLIVTNFAPNDSKIPTVVFQQKLATAFQQKLEANKEVFGKIRVALINPPQELTLAPDNSVDMVVTFRNIHNWVNAGYAEQVYAAAYKALKPGGILGVEEHRAKPGISLQESIKTGYMSEDGVIAAVEKVGFKLVGKSEINANPQDTKDYPGGVWALPPTLRQGQKDRQRLVAIGESDRMTLKFIKPEANINSGSNAK” it was “failed”. For “MKNELICYKQMPVWTKDNLPQMFQEKHNTKVGTWGKLTVLKGKLKFYELTENGDVIAEHIFTPESHIPFVEPQAWHRVEALSDDLECTLGFYCKKEDYFSKKYNTTAIHGDVVDAAKIISPCKVLDLGCGQGRNSLYLSLLGYDVTSWDHNENSIAFLNETKEKENLNISTALYDINAANIQENYDFIVSTVVFMFLNRERVPSIIKNMKEHTNVGGYNLIVAAMSTDDVPCPLPFSFTFAENELKEYYKDWEFLEYNENMGELHKTDENGNRIKMKFATMLARKK”, the protein production entry is given as “not failed”. In the case of “MRPTPYLAPIPVRGRISRPQPKGLPVINMGYNELPYPPLPAIRAAMEETAERAQSYGSPHCDALRDALGAAHGLDPEQIVCGNGSEELLDVIARCFARPGDEILISEFGYIQFALTANRVGATLVKARERDNTSDVDALLAAVSEHTRLLFLANPNNPTGTMLEIDELSRLARDLPAQVVLVLDLAYGEFAAPDYCAAVHSLAANHENIVVTRTFSKAYGLAGARVGWCHAPAWMVPVLYAARGMGTVNALAQAGAVAGLADPAAIQERVDEIVSERARLTGALGQLGLVVTPSRTNFLMARFREGDAARTEALVEHLFEDAGIVVNRTREAGLEAFFRFSLSLPAHNDLLLDSIRRFIGQG” it was “failed”; in that of “SLTGEESDTLRKIVLEECLPNQQQNQNPSPCAEVKPNAGYVVLKDLNGPLQYLLMPTYRINGTESPLLTDPSTPNFFWLAWQARDFMSKKYGQPVPDRAVSLAINSRTGRTQNHFHIHISCIRPDVREQLDNNLANISSRWLPLPGGLRGHEYLARRVTESELVQRSPFMMLAEEVPEAREHMGSYGLAMVRQSDNSFVLLATQRNLLTLNRASAEEIQDHQCEILR”, “not failed”; in that of “MERRGELHRVRVPVSAELEIAEIADRVVKAGGPALLFERVVGKDFPVAIGLFGTRARTAFALGVEDLDELARKVEALLALEPGKGGLSALLGLLPKLPLLRGFFPRRVRRAPVQEVVWRGEEVDLRRLPVLKCWPLDGGPFLTLPLVITKDPETGELNLGMYRMQVLDPRSTAMHWQWHKVGRRHLEKAKRLGRRLEVAVALGGDPVLTYAATAPLPPLPGVSEFHLAGFLRGAPIELARGVTVDLPVPAEAEFVLEGYIDPEEPLVEEGPFGDHTGFYTPVDLYPRFHVTAVTHRKGAIYPATLVGVPPMEDAYLIEATERLFLPALRLVLPEVVDYHMPPEGVAHNWVNVSLRKAYPGQAYKVAYGMLGLGQMMFAKVIVAVDADVPVKPGFAALLEALKHALPGRDTLLLRGPVDVLDHSSRAFAFGGKLVIDGTRKLPEEGGEAPFVPKAHPGLPEDPEVLDQRQWPGLWGAVLAKRRPHQAWEVAERLLRAPQSAGIRLLLLADEDTALSPEELLWYVLNNVDPERDARVMPGVEGPVLVLDGTRKLPEEGFPRVWPERIRMDPKVKALVEARWAEYGLGWTTVGE”, “failed”. In the case of “MSAPSDTPTYLHGFSATEQARLLKQARLLETTLFNQIDYSGARRLLEVGSGVGAQTEILLRRFPELHVTGVDLSETQLDAARANLERLAWCRARYTLQQADASDLPFEARQFDAAFLCWVLEHVPSPARVLNEVRRVLLPGSPVYVTEVMNASFLLHPYSPSLWRYWMAFNDFQHDQGGDPFVGAKLGNLLLAGGFRDVHTQIKTLHLDNREPGRRKTMIGFWEEVLLSAADQLLQAGAVEAATVDGMRRELAQVHSDPDAVFFYSFVQARATVY” it was “failed”; in that of “MSGDEAVAAPVVPPVAEAAVIPEDMDVSTALELTVRKSRAYGGVVRGLHESAKLIEKRNAQLCVLAEDCNQPDYVKLVKALCADHSIKLLTVPSAKTLGEWAGLCKIDSEGNARKVVGCSCLVIKDFGEETTALNIVKKHLDSN”, “failed”; in that of “MGHHHHHHENLYFQSHMDSKRAALESGDGPDAKRLDTTDDQDKEASGGDGSQVMLAKHVAPYTGHGCTPPMESYLFEPTPAGSQLLPWKTSVDLDNDAELEKPTSDKKPDTAKLSRRELAKMRREHTLRALALERELTNKPGQTPASEVLLVRFPDPEITAPMLAG”, “not failed”. Turning to “GHHHHHHAIAENLYFQSSRNPEVLWAQRSDKVYLTVALPDAKDISVKCEPQGLFSFSALGAQGERFEFSLELYGKIMTEYRKNVGLRNIIFSIQKEERSWWTRLLKSEEKPAPYIKVDWNKWCDEDEEVNSETASDDESAFVNQDSESSDDDGLLYLPDLEKARNK”, the protein production result was “failed”. To “MAKGPLVSFQALVENARDLVYVLDAGGAIRYASPNVRQVLGYDPEGHTRETLYALDFVHPEDRTYAEAALEDLLRHPGKTREFRLRLLDAWGRVRAVRVWGRNLLEDPAVRGIIINVHDETELEAERA” belongs “failed”.
